Sequences and labels used below:
B1: P01871 (protein)
chain: GSASAPTLFPLVSCENSPSDTSSVAVGCLAQDFLPDSITFSWKYKNNSDISSTRGFPSVLRGGKYAATSQVLLPSKDVMQGTDEHVVCKVQHPNGNKEKNVPLPVIAELPPKVSVFVPPRDGFFGNPRKSKLICQATGFSPRQIQVSWLREGKQVGSGVTTDQVQAEAKESGPTTYKVTSTLTIKESDWLGQSMFTCRVDHRGLTFQQNASSMCVPDQDTAIRVFAIPPSFASIFLTKSTKLTCLVTDLTTYDSVTISWTRQNGEAVKTHTNISESHPNATFSAVGEASICEDDWNSGERFTCTVTHTDLPSPLKQTISRPKGVALHRPDVYLLPPAREQLNLRESATITCLVTGFSPADVFVQWMQRGQPLSPEKYVTSAPMPEPQAPGRYFAHSILTVSEEEWNTGETYTCVVAHEALPNRVTERTVDKSTGKPTLYNVSLVMSDTAGTCY
B2: Q7Z3Y7 (protein)
chain: MSLQFSNGSRHVCLRSGAGSVRPLNGGAGFAGSSACGGSVAGSEFSCALGGGLGSVPGGSHAGGALGNAACIGFAGSEGGLLSGNEKVTMQNLNDRLASYLDNVRALEEANAELERKIKGWYEKYGPGSCRGLDHDYSRYHLTIEDLKNKIISSTTTNANVILQIDNARLAADDFRLKYENELTLHQNVEADINGLRRVLDELTLCRTDQELQYESLSEEMTYLKKNHEEEMKALQCAAGGNVNVEMNAAPGVDLAVLLNNMRAEYEALAEQNRKDAEAWFNEKSASLQQQISHDSGAATFARSQLTEMRRTLQTLEIQLQSLMATKHSLECSLTETESNYCTQLAQIQAQIGALEEQLHQVRTETEGQKLEYEHLLDVKVHLEKEIETYCRLIDGDGNSCSKSKGFGSGSPGNSSKDLSKTTLVKTVVEELDQRGKVLSSRIHSIEEKTSKMTNGKTEQRVPF
B3: P12035 (protein, UniProt P12035 1-628, looked up)
chain: MSRQASKTSGGGSQGFSGRSAVVSGSSRMSCVAHSGGAGGGAYGFRSGAGGFGSRSLYNLGGNKSISISVAAGGSRAGGFGGGRSSCAFAGGYGGGFGSGYGGGFGGGFGGGRGMGGGFGGAGGFGGAGGFGGAGGFGGPGGFGGSGGFGGPGSLGSPGGFGPGGFPGGIQEVTINQSLLQPLNVEIDPQIGQVKAQEREQIKTLNNKFASFIDKVRFLEQQNKVLETKWNLLQQQGTSSISGTNNLEPLFENHINYLRSYLDNILGERGRLDSELKNMEDLVEDFKKKYEDEINKRTAAENEFVTLKKDVDSAYMNKVELQAKVDALIDEIDFLRTLYDAELSQMQSHISDTSVVLSMDNNRSLDLDSIIAEVRAQYEDIAQRSKAEAEALYQTKLGELQTTAGRHGDDLRNTKSEIIELNRMIQRLRAEIEGVKKQNANLQTAIAEAEQHGEMALKDANAKLQELQAALQQAKDDLARLLRDYQELMNVKLALDVEIATYRKLLEGEEYRMSGECPSAVSISVVSSSTTSASAGGYGGGYGGGMGGGLGGGFSAGGGSGSGFGRGGGGGIGGGFGGGSSGFSGGSGFGSISGARYGVSGGGFSSASNRGGSIKFSQSSQSSQRYSR
modifications: full-length
B4: Q8N1N4 (protein)
chain: MSLSPCRAQRGFSARSACSARSRGRSRGGFSSRGGFSSRSLNSFGGCLEGSRGSTWGSGGRLGVRFGEWSGGPGLSLCPPGGIQEVTINQNLLTPLKIEIDPQFQVVRTQETQEIRTLNNQFASFIDKVRFLEQQNKVLETKWHLLQQQGLSGSQQGLEPVFEACLDQLRKQLEQLQGERGALDAELKACRDQEEEYKSKYEEEAHRRATLENDFVVLKKDVDGVFLSKMELEGKLEALREYLYFLKHLNEEELGQLQTQASDTSVVLSMDNNRYLDFSSIITEVRARYEEIARSSKAEAEALYQTKYQELQVSAQLHGDRMQETKVQISQLHQEIQRLQSQTENLKKQNASLQAAITDAEQRGELALKDAQAKVDELEAALRMAKQNLARLLCEYQELTSTKLSLDVEIATYRRLLEGEECRMSGECTSQVTISSVGGSAVMSGGVGGGLGSTCGLGSGKGSPGSCCTSIVTGGSNIILGSGKDPVLDSCSVSGSSAGS
B5: Q5T749 (protein)
chain: MCDQQQIQCRLPLQQCCVKGPSFCSSQSPFAQSQVVVQAPCEMQIVDCPASCPVQVCQVSDQAPCQSQTTQVKCQSKTKQVKGQAQCQSKTTQVKGQAASQSQTSSVQSQAPCQSEVSYVQCEASQPVQTCFVECAPVCYTETCYVECPVQNYVPCPAPQPVQMYRGRPAVCQPQGRFSTQCQYQGSYSSCGPQFQSRATCNNYTPQFQLRPSYSSCFPQYRSRTSFSPCVPQCQTQGSYGSFTEQHRSRSTSRCLPPPRRLQLFPRSCSPPRRFEPCSSSYLPLRPSEGFPNYCTPPRRSEPIYNSRCPRRPISSCSQRRGPKCRIEISSPCCPRQVPPQRCPVEIPPIRRRSQSCGPQPSWGASCPELRPHVEPRPLPSFCPPRRLDQCPESPLQRCPPPAPRPRLRPEPCISLEPRPRPLPRQLSEPCLYPEPLPALRPTPRPVPLPRPGQCEIPEPRPCLQPCEHPEPCPRPEPIPLPAPCPSPEPCRETWRSPSP
B6: Q12805 (protein, UniProt Q12805 1-493, looked up)
chain: MLKALFLTMLTLALVKSQDTEETITYTQCTDGYEWDPVRQQCKDIDECDIVPDACKGGMKCVNHYGGYLCLPKTAQIIVNNEQPQQETQPAEGTSGATTGVVAASSMATSGVLPGGGFVASAAAVAGPEMQTGRNNFVIRRNPADPQRIPSNPSHRIQCAAGYEQSEHNVCQDIDECTAGTHNCRADQVCINLRGSFACQCPPGYQKRGEQCVDIDECTIPPYCHQRCVNTPGSFYCQCSPGFQLAANNYTCVDINECDASNQCAQQCYNILGSFICQCNQGYELSSDRLNCEDIDECRTSSYLCQYQCVNEPGKFSCMCPQGYQVVRSRTCQDINECETTNECREDEMCWNYHGGFRCYPRNPCQDPYILTPENRCVCPVSNAMCRELPQSIVYKYMSIRSDRSVPSDIFQIQATTIYANTINTFRIKSGNENGEFYLRQTSPVSAMLVLVKSLSGPREHIVDLEMLTVSSIGTFRTSSVLRLTIIVGPFSF
modifications: full-length
B7: Q02413 (protein, UniProt Q02413 1-1049, looked up)
chain: MDWSFFRVVAMLFIFLVVVEVNSEFRIQVRDYNTKNGTIKWHSIRRQKREWIKFAAACREGEDNSKRNPIAKIHSDCAANQQVTYRISGVGIDQPPYGIFVINQKTGEINITSIVDREVTPFFIIYCRALNSMGQDLERPLELRVRVLDINDNPPVFSMATFAGQIEENSNANTLVMILNATDADEPNNLNSKIAFKIIRQEPSDSPMFIINRNTGEIRTMNNFLDREQYGQYALAVRGSDRDGGADGMSAECECNIKILDVNDNIPYMEQSSYTIEIQENTLNSNLLEIRVIDLDEEFSANWMAVIFFISGNEGNWFEIEMNERTNVGILKVVKPLDYEAMQSLQLSIGVRNKAEFHHSIMSQYKLKASAISVTVLNVIEGPVFRPGSKTYVVTGNMGSNDKVGDFVATDLDTGRPSTTVRYVMGNNPADLLAVDSRTGKLTLKNKVTKEQYNMLGGKYQGTILSIDDNLQRTCTGTININIQSFGNDDRTNTEPNTKITTNTGRQESTSSTNYDTSTTSTDSSQVYSSEPGNGAKDLLSDNVHFGPAGIGLLIMGFLVLGLVPFLMICCDCGGAPRSAAGFEPVPECSDGAIHSWAVEGPQPEPRDITTVIPQIPPDNANIIECIDNSGVYTNEYGGREMQDLGGGERMTGFELTEGVKTSGMPEICQEYSGTLRRNSMRECREGGLNMNFMESYFCQKAYAYADEDEGRPSNDCLLIYDIEGVGSPAGSVGCCSFIGEDLDDSFLDTLGPKFKKLADISLGKESYPDLDPSWPPQSTEPVCLPQETEPVVSGHPPISPHFGTTTVISESTYPSGPGVLHPKPILDPLGYGNVTVTESYTTSDTLKPSVHVHDNRPASNVVVTERVVGPISGADLHGMLEMPDLRDGSNVIVTERVIAPSSSLPTSLTIHHPRESSNVVVTERVIQPTSGMIGSLSMHPELANAHNVIVTERVVSGAGVTGISGTTGISGGIGSSGLVGTSMGAGSGALSGAGISGGGIGLSSLGGTASIGHMRSSSDHHFNQTIGSASPSTARSRITKYSTVQYSK
modifications: full-length
B8: B1AHL2 (protein)
chain: MERAAPSRRVPLPLLLLGGLALLAAGVDADVLLEACCADGHRMATHQKDCSLPYATESKECRAVGLASLCQDLNGAWAVWKVGRASQAEGTASARAQRRGMVQEQCCHSQLEELHCATGISLANEQDRCATPHGDNASLEATFVKRCCHCCLLGRAAQAQGQSCEYSLMVGYQCGQVFQACCVKSQETGDLDVGGLQETDKIIEVEEEQEDPYLNDRCRGGGPCKQQCRDTGDEVVCSCFVGYQLLSDGVSCEDVNECITGSHSCRLGESCINTVGSFRCQRDSSCGTGYELTEDNSCKDIDECESGIHNCLPDFICQNTLGSFRCRPKLQCKSGFIQDALGNCIDINECLSISAPCPIGHTCINTEGSYTCQKNVPNCGRGYHLNEEGTRCVDVDECAPPAEPCGKGHRCVNSPGSFRCECKTGYYFDGISRMCVDVNECQRYPGRLCGHKCENTLGSYLCSCSVGFRLSVDGRSCEDINECSSSPCSQECANVYGSYQ
B9: Fibrinogen b: β chain of human fibrinogen, RA autoantigen; native or citrullinated by PAD2 or PAD4 (protein)
chain: MKRMVSWSFHKLKTMKHLLLLLLCVFLVKSQGVNDNEEGFFSARGHRPLDKKREEAPSLRPAPPPISGGGYRARPAKAAATQKKVERKAPDAGGCLHADPDLGVLCPTGCQLQEALLQQERPIRNSVDELNNNVEAVSQTSSSSFQYMYLLKDLWQKRQKQVKDNENVVNEYSSELEKHQLYIDETVNSNIPTNLRVLRSILENLRSKIQKLESDVSAQMEYCRTPCTVSCNIPVVSGKECEEIIRKGGETSEMYLIQPDSSVKPYRVYCDMNTENGGWTVIQNRQDGSVDFGRKWDPYKQGFGNVATNTDGKNYCGLPGEYWLGNDKISQLTRMGPTELLIEMEDWKGDKVKAHYGGFTVQNEANKYQISVNKYRGTAGNALMDGASQLMGENRTMTIHNGMFFSTYDRDNDGWLTSDPRKQCSKEDGGGWWYNRCHAANPNGRYYWGGQYTWDMAKHGTDDGVVWMNWKGSWYSMRKMSMKIRPFFPQQ

The test has as its system PAD2 and PAD4. In words: Citrullination site mapping of fibrinogen and vimentin by trypsin digestion and mass spectrometry (protein-level sheet, one search over native, PAD2-cit and PAD4-cit samples). The test is classed as biochemical, human. Conditions: modified residues found per protein; Deamidated [R..] = deamidated (citrullinated) arginine positions; trypsin digest, Sequest HT; not split by sample (native, PAD2-citrullinated, PAD4-citrullinated fibrinogen and vimentin). An excerpt: Description: Raw mass spectrometry data for proteolytic mapping of fibrinogen, vimentin, and hnRNP A2/B1 by cathepsins B, S, and H (sheets 1-6); citrullination site mapping of fibrinogen and vimentin by trypsin digestion (sheets 7-8); and the natural antigen processing assay with native, PAD2-citrullinated (PAD2-cit), and PAD4-citrullinated (PAD4-cit) fibrinogen (sheets 9-11).
B1: the Modifications entry is “Deamidated [R423]”. With B2 the entry was “Deamidated [R96]”. With B3 the entry was “Deamidated [R217]”.

As for B4, the Modifications result was “Deamidated [R130]”. With B5 the entry was “Deamidated [R211; R248; R371; R554]”. With B6 the entry was “Deamidated [R185; R208; R227; R328; R345]”. For B7 the value was “Deamidated [R416; R607]”; for B8, “Deamidated [R217; R219; R325; R327; R381; R391; R505; R623; R643; R671]”; for B9, “Deamidated [R53; R60; R72; R74; R158; R196; R199; R224; R246; R267; R285; R334; R376; R395; R410; R421; R436; R445; R478]”.

These data come from publication PMC9958131 (Nature Communications, 2023).
